# Results taken from the DeepSol protein solubility set.
# Experiment: soluble on expression in E. coli; label from the status in PepcDB or PDB records
row,Sequence,soluble on expression in E. coli
1,MGSDKIHHHHHHMQNQPPFIINSTYHREESKDIEFKSIASQHPVKKIVNHAEEYITGFLNALVEGQLYIGIDDAGKILGVKLSRSERDEIQKIIPNKLRNTDPIVSPSLYDIAFYNVLNEEQKDIEDLFVVNISVLGVDESQFYRTSSREYFLYKTTGGSTYLKTGTDCIKLNTTEIAQEIQKRKQKYLKQELDNIDDKLLQNPDNRSLLKEKANIAKLMGDIEKMDESYKRLINLNPNNSRTRVDYASAHKSIGDLEGALDILEDALKVDGDNLSILKTKGEILLGSDSSDKVKEAFQTYETALKLNPEDYTIITQIGIALRKLGKYKESIKVFNLALAKSPHYRAAKYEKRITYHKMFEGGIRI,not soluble
2,MGSDKIHHHHHHMLKLSVCLLTCNSARLLMEVLPPLLKVADECIVVDSGSTDETVAICQQFGLTVHHHAYKAHGAQMNYAIGLASHDWVLCMDSDEILDNDVVAAIQALKAGEEPEPTCAWRLPRYWFVLGKQVRTIYPISSPDYPVRLFNRQQARFNDRPVDDQVVGHASSVRLPGFVRHDTFYSLHEVFNKLNSYTTRLVKYQQIKPSLTRGIVSAIGAFFKWYLFSGAWRYGKVGVVTGLYATFYSFLKYFKAWYAHEDNQAPVAQKRTDP,not soluble
3,MNSASFLQSRLISRSFLVRRSLKRYSGLAKPYTFQQPTIYALSTPANQTSAIAIIRISGTHAKYIYNRLVDSSTVPPIRKAILRNIYSPSSCSVKPHDQKESKILLDTSLLLYFQAPYSFTGEDVLELHVHGGKAVVNSILKAIGSLHDRSSGKDIRFALPGDFSRRAFQNGKFDLTQLEGIKDLIDSETESQRRSALSSFNGDNKILFENWRETIIENMAQLTAIIDFADDNSQEIQNTDEIFHNVEKNIICLRDQIVTFMQKVEKSTILQNGIKLVLLGAPNVGKSSLVNSLTNDDISIVSDIPGTTRDSIDAMINVNGYKVIICDTAGIREKSSDKIEMLGIDRAKKKSVQSDLCLFIVDPTDLSKLLPEDILAHLSSKTFGNKRIIIVVNKSDLVSDDEMTKVLNKLQTRLGSKYPILSVSCKTKEGIESLISTLTSNFESLSQSSADASPVIVSKRVSEILKNDVLYGLEEFFKSKDFHNDIVLATENLRYASDGIAKITGQAIGIEEILDSVFSKFCIGK,not soluble
4,MTSQRCRRRYFMMIRERIEEKLRAAFQPVFLEVVDESYRHNVPAGSESHFKVVLVSDRFTGERFLNRHRMIYSTLAEELSTTVHALALHTYTIKEWEGLQDTVFASPPCRGAGSIA,soluble
5,MSKKLKPFEILEDSCASVCIWLNGEPTAISNRAENLWNKAKYRVATDGAVNEILKRKSFVEWPHIICGDFDSINKQIDTKNAKVVHLPDQDYTDLSKSVQWCLEQKTLTSWEFENIVVLGGLNGRFDHTMSTLSSLIRFVDSQTPVIVLDSRNLVLAVPTGDSNLDVNLEMTTKMCGIIPIVQKETIKTLLLNLENLSARRMKLPRAKYF,not soluble
6,MGSDKIHHHHHHAATRLKRRKFPTINEEFYYNQLENGMTVFLIPKESFKETLAVMSSRFGSIDTNFTVNGKKKSYLAGIAHLLEHQLFEMNKQKDAAYEFTKLGAESNAYTTFDKTIYYFSTADNIKKNLDLLQEFTSQINFTDMSIEKEKKIITQEFNMYQDDSDDYLYQVILSKLYPQTSLAEDITGNRDSIDKLTKNNLEENFHYFYQPENLTLLVAGDFDVKRVYKDIVTTQRQLPDRPKFEIKRSPLKLLPITPTSSMQMDISISKLAVGFRFNFIKKKRKSLIKERLLLKLFFLLLFGWTSEHYQQWYEDRKIDDSFELKIEVSTSYQFVVILLDTKEPIAMSNKIGQTIKKFKTDTNLSASHLQTVKKELYGDFIRSLDSLEALSSQFIDNLWGEETYFDFPTVLQNIEIKDVLEFGEKITKEMQLTDFTLFPK,not soluble
7,AHHHHHHGSILDVRGLKPPQPTLMILENLGKLKIGETLEVLGDKPFVDIIPKLEEAGYQVELNKVGEFFVLKVTKTEGSKELKMEVEECDEELKEITEDTNVAKLLKAYPESLDILVKYGFSPLQNPVLRKTLARTVTLKQAKKLIGMSDERFEEMMKELKKLEKR,soluble
8,MAEDIFRVATVEDAPEFLELLSSAFKSVKELGIDWPSTNADLAMVTENIVNSSAFVLERNGKLISTITVRFPWESSSPPSKYPFVWWFATAPELAGQGIGDKLLTYVEERVLRDTLKAPALTLGTSARKHPWLLDMYLRRGYEVYFEHEEDGDVGVMMRKILIPEKFDATLLGIPSWT,not soluble
9,MSLVKTYAFGFPKLGEKREFKRLLENYWKGKISQEELIKGMEELNLWRANLYRENVEIIPSNELSYYDFMLDTTVMVGAIPSRFGEYRGLDTYFEMARGKNALELTKWFNTNYHYLVPELEGENFKLLINRPLEDYKFFKEKGINTVPHVIGLFTFLKLSKAPKRVEEEGLPVIILEKLDTKERLEKFTKALLPVYKELLESLKNEGVNRVHFEEPALVTDLEDYDWEILNEIYSELSKVGVDLGILTYYDSVSDYDKFVNLPVKALHFDLVSNEENLKNIKEKGFPEDKELIAGIINGRQPWRANLREKVKLLEELLKVSANLVVSNSCPLYHLPVTVEPEDELPEGLKERLSFAKEKLREIRLIKEALEGKEEALREVESSEKVMTAVFAQNPEVRRRLASLSEKDFQRELPYKERDKIQRDILKLPLFPTTTIGSFPQTEDVRKMRTAYRTGKISEEEYKNFIKQKIKYAIEVQEDIGLDVLVHGEFERSDMVEYFAIKLDGIATTKHGWVLSYGSRVYRPPIIYGDVSRPAPMTLEEITYAQSLTNKPVKGMLTGPVTILNWSYYREDVPKREIAYQIALALLDEVKDLENAGIKVIQIDEPAFREGAPLKKRDWPEYFDWAVKAFRLASRAKPETQIHTHMCYSEFNEIIEYIYQMDFDVISIEASRSKGEIIEVFEKFKGWDRQIGIGVYDIHSPAIPTKEEMKAIMLRAMKVLPKELLWVNPDCGLKTRRWEEVIPALRNMVDMAKELREEVGVKVEGHHHHHH,soluble
10,MTNKISSSDNLSNAVSATDDNASRTPNLNRRALVGGGVGLAARGALASGLQAATLPAGASQVPTTPAGRPMPYAIRPMPEDRRFGYAIVGLGKYALNQILPGFAGCQHSRIEALVSGNAEKAKIVAAEYGVDPRKIYDYSNFDKIAKDPKIDAVYIILPNSLHAEFAIRAFKAGKHVMCEKPMATSVADCQRMIDAAKAANKKLMIGYRCHYDPMNRAAVKLIRENQLGKLGMVTTDNSDVMDQNDPAQQWRLRRELAGGGSLMDIGIYGLNGTRYLLGEEPIEVRAYTYSDPNDERFVEVEDRIIWQMRFRSGALSHGASSYSTTTTSRFSVQGDKAVLLMDPATGYYQNLISVQTPGHANQSMMPQFIMPANNQFSAQLDHLAEAVINNKPVRSPGEEGMQDVRLIQAIYEAARTGRPVNTDWGYVRQGGY,soluble
11,IDLSNALPGSRRGFLKGAAVVGLTIGFQWSGARRALAAALPDAGFAPNAFLRIAPDDSVTVIAKHVEMGQGAYTGIATIVAEELDADWSKVRVESAPADAKRYANLAFGTMQGTGGSSAMANSWMQLREAGAKARAMLVEAAARQWQVPAAELRTRDGFVEHPTSQRKASYGSLAAAAAELPVPEKVQLKDPKDFRLIGHQAPRVDVPGKTDGSAQFTLDVSLPGMLVALLQRPPLFGATVKSFDATATRAIPGVVEVVQVPHGVAVVAKGFWAAKQGRDALKVEWDESKAEKRGSEALMAEYRKLAEQPGKPARRDGDAAKAVAGATRRIAASYEFPFLAHAPMEPLDAVVRLTADSCEIWAGDQFQTVDQGNAARTAGLKPEQVKINTLYAGGSFGRRANAWSDYIVEAVSIAKALGANGVPVKLQWTREDDIHGGFYRPMYYHRLEAGLDADGKLVGWQHRIVGQSILEGTPFAAVMVKDGIDATSVEGAANLPYAVPNVSVELSTTQVGVPVLWWRVVGSSHTVYAVEAFIDEAAQAAGKDPYLFRRDLLAEQPRLRGVLELAAEKAGWDPSRPLPAGRGRGIAVTEAFKTFVAQVVEVSVDKDGKLKVERVVCAVDCGIPINPDVIAAQMEGGIGFGLGAILHSAITLKDGKVEQNNFDGYQVLRIAEMPKVEVHIVPSGEAPTGVGEPGVAPIGPALANAIFAATGQRLYNLPFPTSFA,not soluble
12,MRPYYIAIVGSGPSAFFAAASLLKAADTTEDLDMAVDMLEMLPTPWGLVRSGVAPDHPKIKSISKQFEKTAEDPRFRFFGNVVVGEHVQPGELSERYDAVIYAVGAQSDRMLNIPGEDLPGSIAAVDFVGWYNAHPHFEQVSPDLSGARAVVIGNGNVALDVARILLTDPDVLARTDIADHALESLRPRGIQEVVIVGRRGPLQAAFTTLELRELADLDGVDVVIDPAELDGITDEDAAAVGKVCKQNIKVLRGYADREPRPGHRRMVFRFLTSPIEIKGKRKVERIVLGRNELVSDGSGRVAAKDTGEREELPAQLVVRSVGYRGVPTPGLPFDDQSGTIPNVGGRINGSPNEYVVGWIKRGPTGVIGTNKKDAQDTVDTLIKNLGNAKEGAECKSFPEDHADQVADWLAARQPKLVTSAHWQVIDAFERAAGEPHGRPRVKLASLAELLRIGLG,soluble
13,MSADVVENGRAYNALWWAKVQSGGPQKVPADTPAVAGLARAVEPDGSGLWMLPTVPDGAGHGVLEELGAPPVAVEMPNETARVLAICVACCWTDRDASTWPGVTGTLAQVKAVYAGMRGRAEQSSDLTLIIGSLRRLHATHWLLWNEKAGEVRLGPRTITWSPSDLATLREICRVLPDPPPAVLVARAPEPTPDPLPVAASADGPAPSSDQAAASALPSPAAPPADGAPGPTPDPSPSLTSTSPAPSAPARSTEQSG,not soluble
14,MARQHRLRAGRPVAAEACMSGGETGRTLRALFMSVSLGAGHDQAQQAVKQAFAERGVELLGAEHDSVEYLSTFERSFTVDLYEFELRYAPWLYRGFYWLTDQDQPWNIISRMFTWLGMGAFKDELRELRPEVVINSFWAPAAVCDTLRAQTGQRFLNCLIVTDYRAHLHWARRETDLLMVASEETRRQMLERGVRPEQVEVTGIPISPAFREVLAADRWALRAELFSEMSLRPGVPLLLLSGGGRGHYAAAADVLTELGNLGRAVQVLVPASRQGEGTETIGGATVHHLGFRRDLPRLLAASDLVVGKAGGLTVAEATALGVPLVIYAPIPGQEEHNADFLERHGAGLWARARHDVRPLVLRALDPAEHARLSAGARAVGIPDAADRVAGAILRRLGDGLGDELGDSRGPA,not soluble
15,MDDDDTFTCRIQYINDADPFATTSSSYLEPMRPVTFKFRLHECISDQLQDVIRTLRAPHKAGDSSLQVYRGLEGGGGELHTYLDNDMTLTDQQEELDILKADTRRCSLVLRTQTSLRVKTIIDKLLNCSGRDQRRALFSLKQIFQDDQDLVHEFVQNQGLDCMIRLGRTADQNHQNYILRALGQLMLYVDGMNGIIAHNGTIQWLYELLDSPFRLVVKTALKLLLVFIEYNDNNALLVLTAIQTVDKSKGQADWSGLMKVLTEKDSPDAETLVYGMTVVNKALHGIPDRVVILEPLHEFHPQFPQQFLHGNHQSGRIFNRLHLLQLITTISGLFAAKIFRRRFSWFRKIKRTRFRKKPTRVKVKAPPPSFPTLFSPTESKTMDFSEVAPQEPEPEKVAPPPPRAKIEDTGSGNSFADMLQKRAARSAEANRGTFEKKESEAEMQWKKAAENLEKRPLIINDLDFSQFHGVEYQQDPLQLARMAKMKEMAENGMRGGPVGVGVPPPPPPPSAIPLPPRLQGGIPPPPPLGIIPPPPPPGNLLMNGINRGDISPAANKGVLKLHWKPATVEQPDGIPSLKQKGSFWNTVDGAVPTFDAKKIVQLFETKKEKEAPVKKVAETKTQTLSVLPLKRSQAINIGLTKLPPINVIPAAIMKFDSLVLNKDGIEKILKTMMPSPKEIEEIEIKAAENPEMTLGNAEQLLLKLSQIPCLLERLRLWLFTLDYKNSEKDIAEPLMDMQLAMKEMEESRTFKVAMGMLLAIGNSLSGTDIKGFYLDYLTKASEVKDPVYKHTLTYHLAEYMVEHFSEGTDLYSEFGAVARSARVDYKELLDNLIRLEKDCKSSWECLATINVAQRIHQLKAIYTVTKNRWHSFLLYFGYSVDEIPNQTPNDVFKMVTEFSLEYRTTRDKILQQRKRLAEKRERNKTRGKIWALEGSSAEGGAGDAAPLRRRNHGPGTVAPVQNSQQRHDDMSKMLASMADDNNSLRRRPAGSNGVNGRNFGGSVKDLVDTESPEDEILNGLVKAATLQTDPRDQRRRARQFNRKSLRRTRTLKMVDGQLETNY,not soluble
